The target of one assay is T1, phage clone 5F12.
T1 construct: not shown: phage coat protein carrying the 12-mer (NEB Ph.D.-12 library)
T1 peptide: DVYWLMPDPPTS
Kind of assay: phage clone panned on an antibody-coated plate, eluted titer.

In the next assay the target is T2, phage clone 5D2.
T2 construct: The sentence also calls it a 'synthetic short peptide'; not shown: phage coat protein carrying the 12-mer (NEB Ph.D.-12 library)
T2 peptide: GTSTEVWLAPDP
The description is as above.

The target in assay [1] is T3, human OPN protein (human, UniProt P10451 17-314, limits assumed).
T3 construct: also called hOPN; human osteopontin
T3 sequence (P10451 17-314 limits assumed): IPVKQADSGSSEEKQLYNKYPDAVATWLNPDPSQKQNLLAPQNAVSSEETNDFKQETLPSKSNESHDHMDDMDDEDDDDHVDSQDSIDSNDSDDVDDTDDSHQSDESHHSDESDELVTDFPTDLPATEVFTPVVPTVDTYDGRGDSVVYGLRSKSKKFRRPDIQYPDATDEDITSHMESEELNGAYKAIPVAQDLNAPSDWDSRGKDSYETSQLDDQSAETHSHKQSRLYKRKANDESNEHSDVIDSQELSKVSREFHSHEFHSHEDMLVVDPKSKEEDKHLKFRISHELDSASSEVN
Kind of assay: western blot. (In general: A western blot detects proteins with antibodies after separation by electrophoresis.)

For the next assay, the target named is T4, KLH-5F12 (also: coupled to KLH (site and chemistry not given here)).
T4 construct: Synthetic 5F12 peptide as a KLH conjugate, spotted in the dot blot; also called short peptide 5F12 coupled to KLH
T4 peptide: DVYWLMPDPPTS
Kind of assay: dot blot, 10 ng dots of KLH peptide. As for the experimental part:
Dot-blot assay was as follows: three dots of 3×10 ng KLH-4B5 (irrelevant control) and KLH-5F12 respectively, were pointed. Each short peptide obtained in experiment V-4 was used to hybrid with three different antibodies. After being blocked and washed, the membrane was reacted with primary antibody at room temperature for 1 hour. Then, the membrane was washed again, and reacted with HRP-labeled anti-mouse secondary antibody at room temperature for 1 hour. After being washed, the membrane was pressed and exposed.

Assay [2] has as its target T3, human OPN protein. Kind of assay: western blot, 5 ug hOPN per lane. As to the method:
SDS-PAGE (10%) electrophoresis was carried out (5 ug hOPN/lane). hOPN was transferred to nitrocellulose membrane by 360 mA constant current for 1 hour.

Three molecules from patent US20100239588A1 (SHANGHAI NATIONAL ENGINEERING RESEARCH CENTER OF ANTIBODY …, published 2010) can be followed below.

Ends that are not written are not given here.

B1: mouse anti-human OPN monoclonal antibody 23C3 (antibody, V domains shown)
VH: EVQLVESGGGLVQPKGSLKISCAASGFTFNIYAMNWVRQAPGKGLEWVARIRSQSNNYTTYYADSVKDRFTISRDDSQSMLYLQMNNLKTEDTAMYYCVRQMGDYWGQGTTLTVSS
VL: YIQMTQSPASLSVSVGETVTITCRASENIYSFLAWYQQKQGKSPQLLVYAATNLADGVPSRFSGSGSGTQFSLKINSLQSEDFGTYYCQHFWGTPFTFGSGTKLEIKR
notes: also called 23C3 mAb; 23C3 monoclonal antibody
On to B1, for which the binding result in the assay with phage clone 5F12, with phage clone 5D2, with human OPN protein [1] and in the assay with KLH-5F12 was “binds” throughout.

B2: anti-OPN humanized antibody h23C3 (h23C3Hb/h23C3Lb) (antibody, human IgG1, kappa, V domains shown)
VH: EVQLVESGGGLVQPGGSLRLSCAASGFTFNIYAMNWVRQAPGKGLEWVARIRSQSNNYTTYYADSVKDRFTISRDDSKNSLYLQMNSLKTEDTAVYYCVRQMGDYWGQGTLVTVSS
VL: YIQMTQSPSSLSASVGDRVTITCRASENIYSFLAWYQQKPGKAPQLLVYAATNLADGVPSRFSGSGSGTQFTLTISSLQPEDFATYYCQHFWGTPFTFGQGTKLEIKR
notes: Humanized variable regions that retain seven murine framework residues, joined to the human CH and CL by the same method as for h23C3Ha/h23C3La; The signal peptide is left out; also called h23C3VHb/h23C3VLb
For the molecule B2, in the assay with human OPN protein [2], the binding result is “binds”.

B3: anti-OPN chimeric antibody c23C3 (antibody, human IgG1, kappa, V domains shown)
VH: EVQLVESGGGLVQPKGSLKISCAASGFTFNIYAMNWVRQAPGKGLEWVARIRSQSNNYTTYYADSVKDRFTISRDDSQSMLYLQMNNLKTEDTAMYYCVRQMGDYWGQGTTLTVSS
VL: YIQMTQSPASLSVSVGETVTITCRASENIYSFLAWYQQKQGKSPQLLVYAATNLADGVPSRFSGSGSGTQFSLKINSLQSEDFGTYYCQHFWGTPFTFGSGTKLEIKR
notes: 23C3 VH and VL joined by overlap PCR to the cloned human CH (pGEM-T/CH) and CL (pGEM-T/CL); also called C23C3 chimeric antibody; chimeric monoclonal antibody c23C3
Consider B3, for which the binding result in the assay with human OPN protein [2] is reported as “binds”.
